Here are results for 83 variants from the RNAGym collection of RNA variant scans (doi:10.1073/pnas.2313332121).

B1: TPR t1 (parent)
chain: GACCAAUCUGCCCUCAGAGCUCGAGAACAUCUUCGGAUGCAGAGGAGGCAGGCUUCGGUGGCGCGAUAGCGCCAACGUCCUCAACCUCCAAUGCAUCCCACCACAUGAUGAUGCCUGAAGAGCCUUGGUUUUUUG

This series covers variants of B1. Nature of the series: polymerase ribozyme fitness, log enrichment relative to wild type (log ratio); higher = more active; in vitro selection for triplet polymerase activity. A digest of the protocol:
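Each subunit of a heterodimeric triplet polymerase ribozyme was mutagenized into a library by PCR, transcribed, and subjected to one round of in vitro selection, run in triplicate. Libraries were annealed with a biotinylated primer, the partner subunit and triplets, incubated frozen at −7 °C, and extended constructs were gel-excised, captured on streptavidin beads and recovered by RT-PCR. Input and output libraries were sequenced on Illumina, keeping genotypes with ≥10 input reads and ≥1 read per output. Fitness is log base 2 of genotype enrichment divided by wild-type enrichment, from inverse-variance-weighted replicate averages.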
Consider C56G G110U, for which the “polymerase ribozyme fitness (log ratio)” value was -1.13.

Turning to A46U C79A C115G, the “polymerase ribozyme fitness (log ratio)” value was -5.77.

On to C40G U109A C114G U132A, for which the “polymerase ribozyme fitness (log ratio)” value was -4.05.

Regarding G51A A74C, the “polymerase ribozyme fitness (log ratio)” value is -4.63.

As for G42A G113A, the “polymerase ribozyme fitness (log ratio)” value was -2.62.

Consider G69U U112G C123G, for which the “polymerase ribozyme fitness (log ratio)” value is 1.13.

Take C11A C20U C73A A118U U133A: the “polymerase ribozyme fitness (log ratio)” value is -2.94.

Regarding C56U G122A, the “polymerase ribozyme fitness (log ratio)” value was -0.36.

In the case of G47C G61U, the “polymerase ribozyme fitness (log ratio)” value is -2.07.

In the case of C11A U78A G120A, the “polymerase ribozyme fitness (log ratio)” value stood at 1.31.

As for C20A C28A G36A A90C G110U, the “polymerase ribozyme fitness (log ratio)” value is -4.25.

For A43G G113C, the “polymerase ribozyme fitness (log ratio)” value was -3.

For C3A U9C C11A C49G U109A U126G, the “polymerase ribozyme fitness (log ratio)” value is -6.11.

Consider U38G U78A, for which the “polymerase ribozyme fitness (log ratio)” value was -0.0381.

Take C85A C124A U126G: the “polymerase ribozyme fitness (log ratio)” value was -0.918.

With G17C C85G, the “polymerase ribozyme fitness (log ratio)” value is -6.06.

In the case of U9C U92G, the “polymerase ribozyme fitness (log ratio)” value is -1.58.

On to U54G G117A, for which the “polymerase ribozyme fitness (log ratio)” value is -2.

On to U32G C49A C70U A74G A83G G93C C114A U125G, for which the “polymerase ribozyme fitness (log ratio)” value was -7.4.

For G48U A118G U125G, the “polymerase ribozyme fitness (log ratio)” value was -2.75.

For A16U C53G U96G U112A G128C, the “polymerase ribozyme fitness (log ratio)” value is -3.45.

Take C49U G52A C73G A121U: the “polymerase ribozyme fitness (log ratio)” value was -1.14.

Consider C15U A91G A105G U112A, for which the “polymerase ribozyme fitness (log ratio)” value is -3.8.

Regarding G48U A50U A68G C89G U106A U116C C124U, the “polymerase ribozyme fitness (log ratio)” value was -5.48.

Take C49G C62G: the “polymerase ribozyme fitness (log ratio)” value is -3.46.

As for A29U G69C C98U G113C, the “polymerase ribozyme fitness (log ratio)” value was -4.71.

Consider C80U G117C, for which the “polymerase ribozyme fitness (log ratio)” value is -3.58.

C12U U129A: the “polymerase ribozyme fitness (log ratio)” value was -0.808.

For A26G C53A U81G, the “polymerase ribozyme fitness (log ratio)” value was -3.49.

Turning to G52A U78G, the “polymerase ribozyme fitness (log ratio)” value is -0.374.

As to G51U G52C C80U, the “polymerase ribozyme fitness (log ratio)” value was -3.13.

As to C8G G71A, the “polymerase ribozyme fitness (log ratio)” value stood at 0.0703.

With G10A G52U C56G C98U G113U, the “polymerase ribozyme fitness (log ratio)” value was -6.91.

With C62G U131A, the “polymerase ribozyme fitness (log ratio)” value is -1.42.

In the case of G107U A121U G128C, the “polymerase ribozyme fitness (log ratio)” value is -4.77.

U14C C49U A50U U55A: the “polymerase ribozyme fitness (log ratio)” value was -6.51.

With C73G U81A C85U C115U, the “polymerase ribozyme fitness (log ratio)” value was -5.48.

In the case of A6C A26U C62U, the “polymerase ribozyme fitness (log ratio)” value is -2.91.

With U55C C56U U125A, the “polymerase ribozyme fitness (log ratio)” value was -0.641.

Turning to C40U C49A C94U G117C, the “polymerase ribozyme fitness (log ratio)” value is -5.09.

For the variant A2U G77C U116A C124A U130C, the “polymerase ribozyme fitness (log ratio)” value is -0.208.

For G47A C70A G77A C79U C86G, the “polymerase ribozyme fitness (log ratio)” value was -5.44.

Consider U78C A84C U96G U116G, for which the “polymerase ribozyme fitness (log ratio)” value was -3.6.

In the case of G42A C86A U106G, the “polymerase ribozyme fitness (log ratio)” value was -5.73.

On to A6U G135U, for which the “polymerase ribozyme fitness (log ratio)” value was -0.769.

Consider G19U U87A U106C A118U, for which the “polymerase ribozyme fitness (log ratio)” value is -4.56.

With C13G A74G C79U, the “polymerase ribozyme fitness (log ratio)” value is -1.86.

On to C22G G23A G61U C89U C114U, for which the “polymerase ribozyme fitness (log ratio)” value was -3.99.

For the variant A18C C22U C73A A121U, the “polymerase ribozyme fitness (log ratio)” value is -5.5.

For A2G C12U G17C U78C C86G, the “polymerase ribozyme fitness (log ratio)” value is -4.66.

With C12A C20A G63C G113U C115U U131A, the “polymerase ribozyme fitness (log ratio)” value is -3.61.

For A74U C94U, the “polymerase ribozyme fitness (log ratio)” value was -0.301.

Consider C64U C86A, for which the “polymerase ribozyme fitness (log ratio)” value is -1.42.

Turning to G61C A100U A111G G113A, the “polymerase ribozyme fitness (log ratio)” value is -4.64.

Turning to C8U G71A C88U, the “polymerase ribozyme fitness (log ratio)” value was -0.224.

C70A G71U A75G C99A A121U G127U: the “polymerase ribozyme fitness (log ratio)” value is -4.8.

For the variant U7G G39A C114G, the “polymerase ribozyme fitness (log ratio)” value is -2.02.

Take G48C G57A: the “polymerase ribozyme fitness (log ratio)” value is -0.626.

C12A C70G C89A G110A U129A: the “polymerase ribozyme fitness (log ratio)” value was -6.66.

As for C34A A46G U54G, the “polymerase ribozyme fitness (log ratio)” value was -2.69.

Turning to C70U U96A, the “polymerase ribozyme fitness (log ratio)” value is -1.14.

As for C12U U33G G69U C99A C115A U125C, the “polymerase ribozyme fitness (log ratio)” value was -6.8.

Turning to G19U C72U A84C, the “polymerase ribozyme fitness (log ratio)” value is -2.82.

In the case of C11G U59A, the “polymerase ribozyme fitness (log ratio)” value came out at 0.0952.

Consider G77A A83C C86U U116A G120C U125A, for which the “polymerase ribozyme fitness (log ratio)” value was -1.96.

As for C104G, the “polymerase ribozyme fitness (log ratio)” value is -6.88.

For the variant C72G C79G, the “polymerase ribozyme fitness (log ratio)” value is -1.67.

Turning to G63A C97U, the “polymerase ribozyme fitness (log ratio)” value was -1.46.

Turning to C49A U96G, the “polymerase ribozyme fitness (log ratio)” value is -0.658.

For C53A C70U G117A A121C, the “polymerase ribozyme fitness (log ratio)” value was -1.08.

As for A37C C70A C72U G120U, the “polymerase ribozyme fitness (log ratio)” value is -1.56.

A6U C94A U96G: the “polymerase ribozyme fitness (log ratio)” value was -3.1.

As for C8G C15A C20U C56A G57U, the “polymerase ribozyme fitness (log ratio)” value was -1.84.

As for C11G A37C C88G, the “polymerase ribozyme fitness (log ratio)” value is -1.94.

Take A24G U96G C102A: the “polymerase ribozyme fitness (log ratio)” value is -5.25.

With U7C U21G U96G, the “polymerase ribozyme fitness (log ratio)” value was -1.67.

C13A A26G C53G A84U A90G: the “polymerase ribozyme fitness (log ratio)” value is -4.94.

For G52U G61A C102U U126C, the “polymerase ribozyme fitness (log ratio)” value was -3.23.

As for C12G C64A, the “polymerase ribozyme fitness (log ratio)” value was -6.46.

Regarding A2C C12A A66U C104U, the “polymerase ribozyme fitness (log ratio)” value was -3.52.

On to A50U U55C U92G A118G, for which the “polymerase ribozyme fitness (log ratio)” value was -5.06.

For A29G C76A G120U, the “polymerase ribozyme fitness (log ratio)” value is -1.97.

On to A46C G51C, for which the “polymerase ribozyme fitness (log ratio)” value is -4.63.
